Measured values: article PMC8876999

Legend:
Test in all cases: purified protein
Format in all cases: biochemical, Homo sapiens
purified protein [1] = substrate: O=C(O)[C@@H]1CSCN1; conditions: 1 mM NADP+, pH 7.5, Tris-HCl, L-T4C 0-25 mM
purified protein [2] = substrate: NC(=O)c1ccc[n+]([C@@H]2O[C@H](COP(=O)(O)OP(=O)(O)OC[C@H]3O[C@@H](n4cnc5c(N)ncnc54)[C@H](OP(=O)(O)O)[C@@H]3O)[C@@H](O)[C@H]2O)c1; conditions: 60 mM L-T4C, pH 7.5, Tris-HCl, varied: cofactor
purified protein [3] = substrate: NC(=O)c1ccc[n+]([C@@H]2O[C@H](COP(=O)(O)OP(=O)(O)OC[C@H]3O[C@@H](n4cnc5c(N)ncnc54)[C@H](O)[C@@H]3O)[C@@H](O)[C@H]2O)c1; conditions: 60 mM L-T4C, pH 7.5, Tris-HCl, varied: cofactor

B1: PYCR2 (Homo sapiens) (protein)
chain: MSVGFIGAGQLAYALARGFTAAGILSAHKIIASSPEMNLPTVSALRKMGVNLTRSNKETVKHSDVLFLAVKPHIIPFILDEIGADVQARHIVVSCAAGVTISSVEKKLMAFQPAPKVIRCMTNTPVVVQEGATVYATGTHALVEDGQLLEQLMSSVGFCTEVEEDLIDAVTGLSGSGPAYAFMALDALADGGVKMGLPRRLAIQLGAQALLGAAKMLLDSEQHPCQLKDNVCSPGGATIHALHFLESGGFRSLLINAVEASCIRTRELQSMADQEKISPAALKKTLLDRVKLESPTVSTLTPSSPGKLLTRSLALGGKKD
Km (purified protein [1]): 6800 ± 900 µM
kcat (purified protein [1]): 0.92 ± 0.04 s⁻¹
kcat/Km (purified protein [1]): 136 ± 19 M⁻¹ s⁻¹
Km (purified protein [2]): 530 ± 120 µM
kcat (purified protein [2]): 0.46 ± 0.02 s⁻¹
kcat/Km (purified protein [2]): 857 ± 224 M⁻¹ s⁻¹
Km (purified protein [3]): 660 ± 110 µM
kcat (purified protein [3]): 0.36 ± 0.13 s⁻¹
kcat/Km (purified protein [3]): 551 ± 223 M⁻¹ s⁻¹
